The supplement of paper PMC7877785
± gives the uncertainty stated by the source.

Assay: self-splicing fitness, log relative to wild type (ln ratio); higher = more splicing; Tetrahymena group I intron in knt gene, E. coli kanamycin selection, DiMSum; sequences stand for … in CUCUCU…GGAGGGAAAAGUUAUCAGGCAUGCACCUGGUAGCUAGUCUUUAAACCAAUAGAUUGCAUCGGUUUAAAAGGCAAGACCGUCAAAUUGCGGGAAAGGGGUCAACAGCCGUUCAGUACCAAGUCUCAGGGGAAACUUUGAGAUGGCCUUGCAAAGGGUAUGGUAAUAAGCUGACGGACAUGGUCCUAACCACGCAGCCAAGUCCUAAGUCAACAGAUCUUCUGUUGAUAUGGAUGCAGUUCACAGACUAAAUGUCGGUCGGGGAAGAUGUAUUCUUCUCAUAAGAUAUAGUCGGACCUCUCCUUAAUGGGAGCUAGCGGAUGAAGUGAUGCAACACUGGAGCCGCUGGGAACUAAUUUGUAUGCGAAAGUAUAUUGAUUAGUUUUGGAGUACUCGUGGUCG
Outline: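 DiMSum derived fitness as the error-weighted combination of fold changes across replicates, kanamycin versus no kanamycin, normalised to wild type. E. coli BL21(DE3) held the library, which randomised all eight P1ex-region intron nucleotides within the knt kanamycin-resistance gene on pET-22b(+). Six replicate transformations grew overnight at 37°C or 30°C on LB agar with or without 25 μg/mL kanamycin, also containing 100 μg/mL carbenicillin, 50 μM IPTG and 0.2% rhamnose, and pooled colonies were amplicon-sequenced on an Illumina HiSeq 2500.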

Sequence | self-splicing fitness (ln) (30 °C) | self-splicing fitness (ln) (37 °C)
CUUGAGCAAUAUUACGAGUC | -4.15 ± 0.39 | -1.33 ± 0.17
GACCAGCAAUAUUACGGUGA | -0.339 ± 0.057 | -0.154 ± 0.081
CUACAGCAAUAUUACGUUAA | -3.48 ± 0.21 | -2.94 ± 0.2
GUAAAGCAAUAUUACGGCUG | 0.0741 ± 0.066 | 0.175 ± 0.088
UUGUAGCAAUAUUACGUCAU | -2.87 ± 0.18 | -1.63 ± 0.13
GGUUAGCAAUAUUACGUUAC | -2.81 ± 0.19 | -1.47 ± 0.23
UUAUAGCAAUAUUACGAUUU | -1.23 ± 0.11 | -0.501 ± 0.13
UUCCAGCAAUAUUACGACUC | -3.04 ± 0.24 | -1.67 ± 0.19
AGGAAGCAAUAUUACGGUCA | -0.983 ± 0.086 | 0.202 ± 0.091
GUACAGCAAUAUUACGCCAU | -3.46 ± 0.23 | -2.32 ± 0.15
CACGAGCAAUAUUACGGCUG | -1.39 ± 0.089 | -0.237 ± 0.11
UACAAGCAAUAUUACGCAGG | -2.78 ± 0.11 | -1.7 ± 0.095
CGCUAGCAAUAUUACGAGCA | -0.28 ± 0.098 | 0.344 ± 0.12
AUCCAGCAAUAUUACGAGGU | -3.37 ± 0.23 | -2.65 ± 0.22
UCAAAGCAAUAUUACGGUAU | -4.12 ± 0.24 | -3.55 ± 0.29
UGUUAGCAAUAUUACGCUUG | -2.03 ± 0.14 | -0.556 ± 0.12
GCAUAGCAAUAUUACGGUGC | -3.71 ± 0.46 | –
AGGCAGCAAUAUUACGUCUU | -4.07 ± 0.25 | -2.58 ± 0.19
CUCCAGCAAUAUUACGCCGU | -3.6 ± 0.3 | -3.11 ± 0.35
CACCAGCAAUAUUACGGCUC | -1.44 ± 0.075 | -0.828 ± 0.087
CCGAAGCAAUAUUACGAAUG | -0.621 ± 0.059 | -0.208 ± 0.076
CUAAAGCAAUAUUACGUGCG | -0.674 ± 0.093 | 0.0651 ± 0.12
GAGCAGCAAUAUUACGCCCU | -0.964 ± 0.31 | –
UUGUAGCAAUAUUACGUGUA | -1.34 ± 0.12 | -1.12 ± 0.15
GCGCAGCAAUAUUACGACCU | 0.0686 ± 0.071 | 0.0313 ± 0.084

Sequence | self-splicing fitness (ln) (30 °C) | self-splicing fitness (ln) (37 °C)
GUGUAGCAAUAUUACGAUCU | -1.04 ± 0.1 | 0.329 ± 0.11
GUGAAGCAAUAUUACGAUGU | -0.316 ± 0.064 | -0.0235 ± 0.094
AACCAGCAAUAUUACGUUGC | -3.21 ± 0.12 | -3.05 ± 0.19
CUUGAGCAAUAUUACGUUUG | -3.1 ± 0.16 | -2.26 ± 0.18
AUUGAGCAAUAUUACGUUCU | -2.53 ± 0.14 | -1.22 ± 0.15
UGGCAGCAAUAUUACGAUGC | -3.93 ± 0.28 | -2.65 ± 0.41
AACAAGCAAUAUUACGGAUU | -1.38 ± 0.071 | -0.641 ± 0.077
AAAAAGCAAUAUUACGGGUC | -3.39 ± 0.16 | -2.7 ± 0.26
CGUCAGCAAUAUUACGACCU | -0.193 ± 0.13 | 0.326 ± 0.15
UCAUAGCAAUAUUACGGUCC | -3.53 ± 0.37 | -1.81 ± 0.35
AUCCAGCAAUAUUACGUCAU | -0.725 ± 0.041 | -0.313 ± 0.057
AAGUAGCAAUAUUACGUACU | -0.863 ± 0.19 | -0.429 ± 0.19
CGGCAGCAAUAUUACGCGGA | – | -2.7 ± 0.3
UCGCAGCAAUAUUACGGUCC | – | -1.82 ± 0.24
GUGAAGCAAUAUUACGUGAC | -2.77 ± 0.23 | -2.18 ± 0.27
GCGGAGCAAUAUUACGACAU | -1.38 ± 0.016 | -0.573 ± 0.035
GGGAAGCAAUAUUACGGAGU | -2.86 ± 0.12 | -2.05 ± 0.16
CCGAAGCAAUAUUACGAUGA | -3.16 ± 0.26 | -2.24 ± 0.19
AAUAAGCAAUAUUACGACCA | -0.614 ± 0.18 | 0.141 ± 0.29
AAGAAGCAAUAUUACGGAAG | -2.77 ± 0.094 | -1.68 ± 0.11
UUAGAGCAAUAUUACGCAUA | -3.06 ± 0.27 | -0.817 ± 0.3
UGUCAGCAAUAUUACGGCGA | -0.34 ± 0.093 | -0.0234 ± 0.1
UGAGAGCAAUAUUACGGCAG | – | -1.58 ± 0.31
CGCAAGCAAUAUUACGGAUG | -1.2 ± 0.062 | -0.889 ± 0.073
